Measured values as given in patent US20250297004A1, “NECTIN-4 BINDING AGENTS” (INNATE PHARMA, priority 2022, published 2025).

Legend:
[1] = molecular target: human Nectin-4 (protein used in the SPR affinity measurements) (human) (UniProt Q96NY8); assay: SPR, human IgG1
[2] = molecular target: T1, human Nectin-4 expressed on cells (human, UniProt Q96NY8 32-510); assay: cell-based or functional assay
T1 sequence: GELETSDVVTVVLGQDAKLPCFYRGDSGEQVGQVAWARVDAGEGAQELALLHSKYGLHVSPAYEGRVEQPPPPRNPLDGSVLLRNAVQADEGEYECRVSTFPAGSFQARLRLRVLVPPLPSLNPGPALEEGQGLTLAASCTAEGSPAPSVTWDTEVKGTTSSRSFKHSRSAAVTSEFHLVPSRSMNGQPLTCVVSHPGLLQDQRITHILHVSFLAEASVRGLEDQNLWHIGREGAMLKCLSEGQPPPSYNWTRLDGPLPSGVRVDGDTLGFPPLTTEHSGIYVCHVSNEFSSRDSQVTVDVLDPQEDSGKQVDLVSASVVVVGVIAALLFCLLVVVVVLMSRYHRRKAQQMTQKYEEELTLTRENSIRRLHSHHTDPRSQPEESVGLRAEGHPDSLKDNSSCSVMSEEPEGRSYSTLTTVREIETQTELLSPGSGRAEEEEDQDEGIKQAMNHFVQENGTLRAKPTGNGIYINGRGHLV

[3] = molecular target: T1, human Nectin-4 expressed on cells; assay: cell-based or functional assay; remark: listed apart in the source
human Nectin-4 = molecular target: T2, human Nectin-4 (Homo sapiens, UniProt Q96NY8); assay: Binding to human Nectin-4 by SPR; conditions: second set (Table 7); for ka: SPR association constant; for kd: SPR dissociation constant; for Kd: SPR, human IgG1 isotype antibodies
T2 sequence (Q96NY8 32-510): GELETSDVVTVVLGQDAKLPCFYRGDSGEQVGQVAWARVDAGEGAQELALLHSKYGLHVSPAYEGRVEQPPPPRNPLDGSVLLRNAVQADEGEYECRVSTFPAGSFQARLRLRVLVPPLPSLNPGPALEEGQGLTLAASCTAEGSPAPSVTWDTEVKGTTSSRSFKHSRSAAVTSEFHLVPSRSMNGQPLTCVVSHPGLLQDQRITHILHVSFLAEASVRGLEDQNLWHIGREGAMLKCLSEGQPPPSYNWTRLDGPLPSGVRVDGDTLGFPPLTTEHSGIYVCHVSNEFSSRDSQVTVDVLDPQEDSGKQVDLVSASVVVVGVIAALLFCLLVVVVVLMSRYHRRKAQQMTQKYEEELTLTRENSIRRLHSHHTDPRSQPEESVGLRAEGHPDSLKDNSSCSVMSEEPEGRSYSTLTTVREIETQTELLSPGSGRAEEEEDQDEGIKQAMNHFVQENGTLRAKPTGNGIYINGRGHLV
Experimental: The antibodies in Table 3 of Example 3 were cloned as human IgG1 isotype antibodies, produced and purified, then tested for binding to human Nectin-4. Affinity of the 16 humanized variants, as well as their association and dissociation constants were assessed by SPR analysis. Table 4 summarizes all the calculated constants (Affinity constant KD (nM), association constant ka (1/Ms) and dissociation constant kd (1/s)).
The antibodies in Table 6 of Example 5 were cloned as human IgG1 isotype antibodies, produced and purified, then tested for binding to human Nectin-4. Affinity of the 16 humanized variants, as well as their association and dissociation constants were assessed by SPR analysis. Table 7 summarizes all the calculated constants (Affinity constant KD (nM), association constant ka (1/Ms) and dissociation constant kd (1/s)).

[4] = molecular target: T1, human Nectin-4 expressed on cells; assay: flow cytometry on SUM190 cells, MedFI at saturation
Experimental: The humanized antibodies in Table 3 of Example 3 and in Table 6 of Example 5 were cloned, produced and purified, then tested for binding to Nectin-4 expressing cells by flow cytometry. Binding of humanized variants in human IgG1 format was determined on the SUM190 cell line expressing high levels of Nectin-4.

B1: H4L2 (antibody, human IgG1, V domains shown)
VH: QVQLVQSGAEVKKPGASVKVSCKASGYIFTSYWMHWVKQAPGQGLEWMGEIDPSDSYTNYNQKFKGRVTMTLDKSTSTTYMELSSLRSEDTAVYYCARGYGNYGDYWGQGTLVTVSS
VL: DVVMTQSPLSNPVTPGEPASISCRSSKSLLHSNGITYLYWYLQKPGQSPQLLIYQMSNLASGVPDRFSSSGSGTDFTLKISRVEAEDVGVYYCAQNLELPWTFGGGTKVEIK
notes: human IgG1 isotype
[1]
  Kd: 26.8 nM
  koff: 0.0054 s⁻¹
  kon: 200000 M⁻¹ s⁻¹
[2]
  internalization efficiency on SUM190, normalized to chimeric parental antibody (Fab-ZAP, CTG), experiment 1: 83.6 % of chimeric parental
  internalization efficiency on SUM190, normalized to chimeric parental antibody (Fab-ZAP, CTG), experiment 2: 67.6 % of chimeric parental
[3]
  internalization efficiency on MDA-MB-468, normalized to chimeric parental antibody (Fab-ZAP, CTG), first column: 64.2 % of chimeric parental
  internalization efficiency on MDA-MB-468, normalized to chimeric parental antibody (Fab-ZAP, CTG), second column: 64.2 % of chimeric parental
Human Nectin-4
  ka: 200000 M⁻¹ s⁻¹
  kd: 0.0054 s⁻¹
  Kd: 26.8 nM
[4]
  Max MedFi: 24400 MedFI

B2: H4L3 (antibody, human IgG1, V domains shown)
VH: QVQLVQSGAEVKKPGASVKVSCKASGYIFTSYWMHWVKQAPGQGLEWMGEIDPSDSYTNYNQKFKGRVTMTLDKSTSTTYMELSSLRSEDTAVYYCARGYGNYGDYWGQGTLVTVSS
VL: DVVMTQSALSNPVTPGEPASISCRSSKSLLHSNGITYLYWYLQKPGQSPQLLIYQMSNLASGVPDRFSSSGSGTDFTLKISRVEAEDVGVYYCAQNLELPWTFGGGTKVEIK
notes: human IgG1 isotype
[1]
  Kd: 21.6 nM
  koff: 0.0052 s⁻¹
  kon: 250000 M⁻¹ s⁻¹
[2]
  internalization efficiency on SUM190, normalized to chimeric parental antibody (Fab-ZAP, CTG), experiment 1: 81.9 % of chimeric parental
  internalization efficiency on SUM190, normalized to chimeric parental antibody (Fab-ZAP, CTG), experiment 2: 61 % of chimeric parental
[3]
  internalization efficiency on MDA-MB-468, normalized to chimeric parental antibody (Fab-ZAP, CTG), first column: 43.8 % of chimeric parental
  internalization efficiency on MDA-MB-468, normalized to chimeric parental antibody (Fab-ZAP, CTG), second column: 43.8 % of chimeric parental
Human Nectin-4
  ka: 250000 ± 30000 M⁻¹ s⁻¹
  kd: 0.0052 ± 0.0002 s⁻¹
  Kd: 21.6 ± 1.1 nM
[4]
  Max MedFi: 24800 MedFI

B3: H5L1 (antibody, human IgG1, V domains shown)
VH: QVQLVQSGAEVKKPGASVKVSCKASGYIFTSYWMHWVKQRPGQGLEWMGEIDPSDSYTNYNQKFKGRVTMTLDKSTSTTYMELSSLRSEDTAVYYCARGYGNYGDYWGQGTLVTVSS
VL: DVVMTQSPLSLPVTPGEPASISCRSSKSLLHSNGITYLYWYLQKPGQSPQLLIYQMSNLASGVPDRFSSSGSGTDFTLKISRVEAEDVGVYYCAQNLELPWTFGGGTKVEIK
notes: human IgG1 isotype
[1]
  Kd: 24.5 nM
  koff: 0.0056 s⁻¹
  kon: 230000 M⁻¹ s⁻¹
[2]
  internalization efficiency on SUM190, normalized to chimeric parental antibody (Fab-ZAP, CTG), experiment 1: 71.5 % of chimeric parental
  internalization efficiency on SUM190, normalized to chimeric parental antibody (Fab-ZAP, CTG), experiment 2: 52.4 % of chimeric parental
[3]
  internalization efficiency on MDA-MB-468, normalized to chimeric parental antibody (Fab-ZAP, CTG), first column: 33.4 % of chimeric parental
  internalization efficiency on MDA-MB-468, normalized to chimeric parental antibody (Fab-ZAP, CTG), second column: 33.4 % of chimeric parental
Human Nectin-4
  ka: 230000 M⁻¹ s⁻¹
  kd: 0.0056 s⁻¹
  Kd: 24.5 nM
[4]
  Max MedFi: 18300 MedFI

B4: H6L3 (antibody, human IgG1, V domains shown)
VH: QVQLVQSGAEVKKPGASVKVSCKASGYIFTSYWMHWVKQRPGQGLEWIGEIDPSDSYTNYNQKFKGRVTMTLDKSTSTTYMELSSLRSEDTAVYYCARGYGNYGDYWGQGTLVTVSS
VL: DVVMTQSALSNPVTPGEPASISCRSSKSLLHSNGITYLYWYLQKPGQSPQLLIYQMSNLASGVPDRFSSSGSGTDFTLKISRVEAEDVGVYYCAQNLELPWTFGGGTKVEIK
notes: human IgG1 isotype
[1]
  Kd: 38.6 nM
  koff: 0.0051 s⁻¹
  kon: 130000 M⁻¹ s⁻¹
[2]
  internalization efficiency on SUM190, normalized to chimeric parental antibody (Fab-ZAP, CTG), experiment 1: 78.7 % of chimeric parental
  internalization efficiency on SUM190, normalized to chimeric parental antibody (Fab-ZAP, CTG), experiment 2: 92.8 % of chimeric parental
[3]
  internalization efficiency on MDA-MB-468, normalized to chimeric parental antibody (Fab-ZAP, CTG), first column: 66.3 % of chimeric parental
  internalization efficiency on MDA-MB-468, normalized to chimeric parental antibody (Fab-ZAP, CTG), second column: 66.3 % of chimeric parental
Human Nectin-4
  ka: 130000 M⁻¹ s⁻¹
  kd: 0.0051 s⁻¹
  Kd: 38.6 nM
[4]
  Max MedFi: 24800 MedFI

B5: H5L2 (antibody, human IgG1, V domains shown)
VH: QVQLVQSGAEVKKPGASVKVSCKASGYIFTSYWMHWVKQRPGQGLEWMGEIDPSDSYTNYNQKFKGRVTMTLDKSTSTTYMELSSLRSEDTAVYYCARGYGNYGDYWGQGTLVTVSS
VL: DVVMTQSPLSNPVTPGEPASISCRSSKSLLHSNGITYLYWYLQKPGQSPQLLIYQMSNLASGVPDRFSSSGSGTDFTLKISRVEAEDVGVYYCAQNLELPWTFGGGTKVEIK
notes: human IgG1 isotype
[1]
  Kd: 23.8 nM
  koff: 0.0053 s⁻¹
  kon: 220000 M⁻¹ s⁻¹
[2]
  internalization efficiency on SUM190, normalized to chimeric parental antibody (Fab-ZAP, CTG), experiment 1: 81.3 % of chimeric parental
  internalization efficiency on SUM190, normalized to chimeric parental antibody (Fab-ZAP, CTG), experiment 2: 86 % of chimeric parental
[3]
  internalization efficiency on MDA-MB-468, normalized to chimeric parental antibody (Fab-ZAP, CTG), first column: 39.4 % of chimeric parental
  internalization efficiency on MDA-MB-468, normalized to chimeric parental antibody (Fab-ZAP, CTG), second column: 39.4 % of chimeric parental
Human Nectin-4
  ka: 220000 M⁻¹ s⁻¹
  kd: 0.0053 s⁻¹
  Kd: 23.8 nM
[4]
  Max MedFi: 25300 MedFI

B6: H6L1 (antibody, human IgG1, V domains shown)
VH: QVQLVQSGAEVKKPGASVKVSCKASGYIFTSYWMHWVKQRPGQGLEWIGEIDPSDSYTNYNQKFKGRVTMTLDKSTSTTYMELSSLRSEDTAVYYCARGYGNYGDYWGQGTLVTVSS
VL: DVVMTQSPLSLPVTPGEPASISCRSSKSLLHSNGITYLYWYLQKPGQSPQLLIYQMSNLASGVPDRFSSSGSGTDFTLKISRVEAEDVGVYYCAQNLELPWTFGGGTKVEIK
notes: human IgG1 isotype
[1]
  Kd: 32.1 nM
  koff: 0.0062 s⁻¹
  kon: 190000 M⁻¹ s⁻¹
[2]
  internalization efficiency on SUM190, normalized to chimeric parental antibody (Fab-ZAP, CTG), experiment 1: 71.3 % of chimeric parental
  internalization efficiency on SUM190, normalized to chimeric parental antibody (Fab-ZAP, CTG), experiment 2: 54.5 % of chimeric parental
[3]
  internalization efficiency on MDA-MB-468, normalized to chimeric parental antibody (Fab-ZAP, CTG), first column: 61.6 % of chimeric parental
  internalization efficiency on MDA-MB-468, normalized to chimeric parental antibody (Fab-ZAP, CTG), second column: 61.6 % of chimeric parental
Human Nectin-4
  ka: 190000 M⁻¹ s⁻¹
  kd: 0.0062 s⁻¹
  Kd: 32.1 nM
[4]
  Max MedFi: 18300 MedFI

B7: H6L2 (antibody, human IgG1, V domains shown)
VH: QVQLVQSGAEVKKPGASVKVSCKASGYIFTSYWMHWVKQRPGQGLEWIGEIDPSDSYTNYNQKFKGRVTMTLDKSTSTTYMELSSLRSEDTAVYYCARGYGNYGDYWGQGTLVTVSS
VL: DVVMTQSPLSNPVTPGEPASISCRSSKSLLHSNGITYLYWYLQKPGQSPQLLIYQMSNLASGVPDRFSSSGSGTDFTLKISRVEAEDVGVYYCAQNLELPWTFGGGTKVEIK
notes: human IgG1 isotype
[1]
  Kd: 41.3 nM
  koff: 0.0058 s⁻¹
  kon: 140000 M⁻¹ s⁻¹
[2]
  internalization efficiency on SUM190, normalized to chimeric parental antibody (Fab-ZAP, CTG), experiment 1: 69.7 % of chimeric parental
  internalization efficiency on SUM190, normalized to chimeric parental antibody (Fab-ZAP, CTG), experiment 2: 63.5 % of chimeric parental
[3]
  internalization efficiency on MDA-MB-468, normalized to chimeric parental antibody (Fab-ZAP, CTG), first column: 58.5 % of chimeric parental
  internalization efficiency on MDA-MB-468, normalized to chimeric parental antibody (Fab-ZAP, CTG), second column: 58.5 % of chimeric parental
Human Nectin-4
  ka: 140000 M⁻¹ s⁻¹
  kd: 0.0058 s⁻¹
  Kd: 41.3 nM
[4]
  Max MedFi: 24800 MedFI
